Positions count from the first letter of the chain named.
T1: human PTH receptor (Mus musculus, UniProt P41593)
T1 construct: mouse cranial bone-derived osteoblast-like cell strain MC3T3-EI cultivated on a 96-well multiplate; endogenous in cells; host or cells: MC3T3-E1 (mouse cranial bone-derived osteoblast-like cells)
T1 sequence (P41593 27-591): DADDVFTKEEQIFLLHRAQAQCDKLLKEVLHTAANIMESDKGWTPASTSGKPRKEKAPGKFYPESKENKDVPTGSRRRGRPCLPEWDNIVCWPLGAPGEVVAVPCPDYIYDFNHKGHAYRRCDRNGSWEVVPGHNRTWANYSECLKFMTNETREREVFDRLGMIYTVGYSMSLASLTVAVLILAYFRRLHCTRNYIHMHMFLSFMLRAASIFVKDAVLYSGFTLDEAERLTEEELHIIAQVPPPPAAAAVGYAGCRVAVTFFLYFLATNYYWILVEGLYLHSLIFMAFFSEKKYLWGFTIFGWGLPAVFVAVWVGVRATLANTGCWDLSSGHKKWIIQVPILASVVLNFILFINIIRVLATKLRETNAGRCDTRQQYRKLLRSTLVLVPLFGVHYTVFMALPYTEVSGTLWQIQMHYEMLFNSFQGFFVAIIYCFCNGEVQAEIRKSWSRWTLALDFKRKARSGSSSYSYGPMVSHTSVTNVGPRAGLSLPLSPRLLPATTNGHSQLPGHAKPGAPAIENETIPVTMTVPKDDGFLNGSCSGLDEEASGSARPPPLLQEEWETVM

B1: [Leu^8 ] human PTH (protein)
chain: SVSEIQLLHNLGKHLNSMERVEWLRKKLQDVHNFVALGAPLAPRDAGSQRPRKKEDNVLVESHEKSLGEADKADVNVLTKAKSQ
B2: [Leu^8,18 ] human PTH: human PTH (1-84) mutein in which methionine residues at the 8- and 18-positions were substituted by leucine (protein)
chain: B1 chain with M18L
B3: [Cys^35 ] human PTH: human PTH (1-84) mutein in which valine at the 35-position was substituted by cysteine (protein)
chain: B1 chain with L8M, V35C
B4: [Leu^18 ] human PTH: human PTH (1-84) mutein in which methionine at the 18-position was substituted by leucine (protein)
chain: B1 chain with L8M, M18L

molecular target: T1, human PTH receptor; test: cAMP production in osteoblast-like MC3T3-EI cells (modified method of Shigeno et al.); assay type: cell-based; conditions: specific activity of the muteins on the natural type human PTH (=1.0), 0.01-100 nM analogue, room temperature, 30 minutes
Description: The biological activity of human PTH muteins obtained in Examples 2 to 6 and natural type human PTH were evaluated by a modification of the method reported by Shigeno et al. [The Journal of Biological Chemistry 263. 18369-18377 (1988)]. A culture solution (Hank's solution containing 20 mM N-2-hydroxyethylpiperazine-N'-2-ethanesulfonic acid (HEPES), 0.1% bovine serum albumin (BSA) and 0.5 mM isobutylmethylxanthine) containing 0.01, 0.1, 1, 10 or 100 nM analogue was added in an amount of 100 μl to mouse cranial bone-derived osteoblast-like cell strain MC3T3-EI cultivated on a 96-well multiplate (Nunclon, Nunc), followed by reaction at room temperature for 30 minutes. After addition of 100 μl of 0.2N hydrochloric acid, the mixture was immersed in boiling water for 2.5 minutes, and cyclic adenosine monophosphate (cAMP) produced by a human PTH receptor was extracted from the cells. The total cAMP in the culture solution and the cells was assayed using a commercial radioimmunoassay kit (cyclic AMP [^125 I] kit "Du Pont-Daiichil", Daiichi Kagaku Yakuhin). An increase in cAMP production depending on the concentration of the human PTH mutein added was always observed. The specific activity of the muteins on the natural type human PTH is as follows: […]

Molecule	Specific Activity
Human PTH: natural type parathyroid hormone, polypeptide hormone consisting of 84 amino acids [reference compound]	1.0
B1	1.0
B2	0.3
B3	0.6
B4	0.2

molecular target: human PTH receptor; test: not given; conditions: not given

cAMP production in MC3T3-EI cells; specific activity on the natural type human PTH (relative to natural type human PTH)	Molecule
1	natural type human PTH (1-84) (ligand)
1	[Leu8] human PTH (1-84) (ligand)
0.3	[Leu8,18] human PTH (1-84) (ligand)
0.2	[Leu18] human PTH (1-84) (ligand)
0.6	[Cys35] human PTH (1-84) (ligand)
